Laboratory results taken from doi:10.1101/2020.11.17.387910 (bioRxiv, 2020).

Molecular target: the molecule itself
Experiment: SAXS

B1: human P5 (PDIA6), full-length (enzyme, UniProt Q15084 20-440, looked up)
chain: LYSSSDDVIELTPSNFNREVIQSDSLWLVEFYAPWCGHCQRLTPEWKKAATALKDVVKVGAVDADKHHSLGGQYGVQGFPTIKIFGSNKNRPEDYQGGRTGEAIVDAALSALRQLVKDRLGGRSGGYSSGKQGRSDSSSKKDVIELTDDSFDKNVLDSEDVWMVEFYAPWCGHCKNLEPEWAAAASEVKEQTKGKVKLAAVDATVNQVLASRYGIRGFPTIKIFQKGESPVDYDGGRTRSDIVSRALDLFSDNAPPPELLEIINEDIAKRTCEEHQLCVVAVLPHILDTGAAGRNSYLEVLLKLADKYKKKMWGWLWTEAGAQSELETALGIGGFGYPAMAAINARKMKFALLKGSFSEQGINEFLRELSFGRGSTAPVGGGAFPTIVEREPWDGRDGELPVEDDIDLSDVELDDLGKDEL
  stoichiometry N: 2
